The values that follow come from patent US20110159003A1 (DOMANTIS, published 2011).

The term IC50 denotes the point on the concentration scale where inhibition reaches its midpoint. A higher IC50 goes with weaker potency. By EC50 is commonly meant the midpoint of the concentration-response curve.

Experiment [1] concerns the target variant IL-13 (R130Q) (human), P35225. Put plainly: cell-based or functional assay.
Experiment [2] concerns the target T1, human IL-13 (human, UniProt P35225 35-146, limits assumed, biotinylated on the Biacore chip).
T1 construct: also called interleukin-13; biotinylated IL-13
Put plainly: IL-13 sandwich ELISA, binder titrated; printed as potency. Here is the method: A MAXISORP™ plate (high protein binding ELISA plate, Nunc, Denmark) was coated overnight with 2.5 μg/ml coating antibody (Module Set, Bender MedSystems, Vienna, Austria), then washed once with 0.05% (v/v) Tween 20 in PBS before blocking with 0.5% (w/v) BSA 0.05% (v/v) Tween 20 in PBS. […] The plate was then incubated with TMB substrate (KPL, Gaithersburg, USA), and the reaction was stopped by the addition of HCl and the absorbance read at 450 nm.

In experiment [3] the target is T2, human IL-4 (human, UniProt P05112 25-153, biotinylated in the RBA and on the Biacore chip).
T2 construct: also called interleukin-4; biotinylated-IL-4
T2 sequence (looked up): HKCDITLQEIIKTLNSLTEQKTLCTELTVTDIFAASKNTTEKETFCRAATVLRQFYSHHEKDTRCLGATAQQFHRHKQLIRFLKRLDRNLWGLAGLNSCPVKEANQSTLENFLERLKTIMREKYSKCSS
Briefly: IL-4 RBA (ELISA), binder titrated; printed as potency. An excerpt: The wells were washed three times with 0.1% (v/v) Tween 20 in PBS, followed by three washes with PBS, before blocking with 2% (w/v) BSA in PBS. […] The reaction was stopped by the addition of HCl and the absorbance read at 450 nm.
On the technique in general: In an ELISA, binding on a coated surface is turned into a signal by an enzyme label.

For experiment [4], the target named is T2, human IL-4. Put plainly: DOM9 RBA (IL-4 RBA), binder titrated.
For experiment [5], the target named is T1, human IL-13. Put plainly: Dom10 RBA (text: IL-13 sandwich ELISA), binder titrated.
For experiment [6], the target named is T2, human IL-4. Briefly: cell-based or functional assay.

T1 sequence (P35225 35-146 limits assumed): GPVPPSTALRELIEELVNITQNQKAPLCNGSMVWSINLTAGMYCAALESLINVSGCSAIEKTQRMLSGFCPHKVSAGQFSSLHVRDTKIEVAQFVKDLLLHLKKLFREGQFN
Sequence of variant IL-13 (R130Q) (human), P35225 (P35225 35-146, stated change not applied): as the sequence (P35225 35-146 limits assumed) above

B1: DOM10-176-535 (protein)
VL: DIQMTQSPSSLSASVGDRVTITCRASQWIGPYLNWYQQKPGKAPKPLIYMGYWAPSGVPSRFSGSGSGTDFTLTISSLQPEDFATYYCQQDLYPPFTFGQGTKVEIKR
On to B1, for which, in experiment [1], the TF-1 proliferation IC50, variant IL-13 is 7.8 nM.

B2: IgG:9-44-502×10-176-535 (bispecific antibody, V domains shown, not shown: a dimerising Fc or GST)
V domain 1: DIQMTQSPSSLSASVGDRVTITCRASQNINFWLRWYQQKPGKAPTLLIYDASRSQSGVPSRFSGSGSGTDFTLTISSLQPEDFATYYCQQDLMPPYTFGQGTKVEIKR
V domain 2: DIQMTQSPSSLSASVGDRVTITCRASQWIGPYLNWYQQKPGKAPKPLIYMGYWAPSGVPSRFSGSGSGTDFTLTISSLQPEDFATYYCQQDLYPPFTFGQGTKVEIKR
notes: IgG-like format from vector pDOM30 (heavy and light chain cassettes); also called dual specific IgG-like format
With B2, the IC50 in the experiment with human IL-13 [2] amounted to 1 nM; with human IL-4 [3] it was 13 nM.

B3: DOM10-215 TVAAPS-DOM9-155-78 (bispecific antibody, from a related filing, part only)
chain: DIQMTQSPSSLSASVGDRVTITCRASQNIFADLNWYQQKPGKAPKLLIYMGSRLQSGVPSRFSGSGSGTDFTLTISSLQPEDFATYYCQQDYKFPLTFGQGTKVEIKRTVAAPSDIQMTQSPSSLSASVGDRVTITCRASRHIGDWLHWYQQKPGKAPKLLIAWASTLDSGVPSRFSGSGSGTDFTLTISSLQPEDFATYYCLQEGWGPPTFGQGTKVEIKR
As to B3, the IC50 with human IL-4 [4] was found to be 6.65 nM. In addition, the EC50 with human IL-13 [5] stood at 10.8 nM.

B4: DOM9-44-502 (other)
VL: DIQMTQSPSSLSASVGDRVTITCRASQNINFWLRWYQQKPGKAPTLLIYDASRSQSGVPSRFSGSGSGTDFTLTISSLQPEDFATYYCQQDLMPPYTFGQGTKVEIKR
Take B4: the “average inhibition of HDM induced PBMC proliferation at 100 nM dAb” value with human IL-4 [6] was found to be 38%.

B5: DOM10-208-TVAAPS-DOM9-155-78 (bispecific antibody, from a related filing, part only)
chain: DIQMTQSPSSLSASVGDRVTITCRASSPITDGLAWYQQKPGKAPKLLIDTGSRLQSGVPSRFSGSGSGTDFTLTISSLQPEDFATYYCRQGAMGSYTFGQGTKVEIKRTVAAPSDIQMTQSPSSLSASVGDRVTITCRASRHIGDWLHWYQQKPGKAPKLLIAWASTLDSGVPSRFSGSGSGTDFTLTISSLQPEDFATYYCLQEGWGPPTFGQGTKVEIKR
B5 displayed an IC50 in the experiment with human IL-4 [4] of 8.18 nM. In addition, the EC50 with human IL-13 [5] was found to be 4240 nM.

B6: DOM10-224 TVAAPS-DOM9-155-78 (bispecific antibody, from a related filing, part only)
chain: DIQMTQSPSSLSASVGDRVTITCRASPNIAVDLAWYQQKPGKAPKLLIRGVSRLQSGVPSRFSGSGSGTDFTLTISSLQPEDFATYYCRQGAMGSYTFGQGTKVEIKRTVAAPSDIQMTQSPSSLSASVGDRVTITCRASRHIGDWLHWYQQKPGKAPKLLIAWASTLDSGVPSRFSGSGSGTDFTLTISSLQPEDFATYYCLQEGWGPPTFGQGTKVEIKR
As for B6, in the experiment with human IL-4 [4], the IC50 came out at 12.5 nM.

B7: DOM10-53-316 (protein)
VH: GVQLLESGGGLVQPGGSLRLSCAASGFIFAWYDMGWARQAPGKGLEWVSSIDWHGEVTYYADSVKGRFTISRDNSKNTLYLQMNSLRAEDTAVYYCATAEDEPGYDYWGQGTLVTVSS
In experiment [1], B7 returned a TF-1 proliferation IC50, variant IL-13 of 0.52 nM.

B8: DOM10-213 TVAAPS-DOM9-155-78 (bispecific antibody, from a related filing, part only)
chain: DIQMTQSPSSLSASVGDRVTITCRASQAIPWGLNWYQQKPGKAPKLLIYDVSSLQSGVPSRFSGSGSGTDFTLTISSLQPEDFATYYCQQDIHIPMTFGQGTKVEIKRTVAAPSDIQMTQSPSSLSASVGDRVTITCRASRHIGDWLHWYQQKPGKAPKLLIAWASTLDSGVPSRFSGSGSGTDFTLTISSLQPEDFATYYCLQEGWGPPTFGQGTKVEIKR
As for B8, in the experiment with human IL-4 [4], the IC50 came out at 6.91 nM. The molecule further yielded an EC50 with human IL-13 [5] of 62 nM.

B9: DOM9-112-22 (other)
VH: EVQLLESWGGLVQPGGSLRLSCAASGFTFRNYGMAWVRQAPGKGLEWISWIDASGTETYYADPVKGRFTISRDNSKNTLYLQMNSLRAEDTAVYYCAKSLGRFDYWGQGTLVTVSS
With B9, the “average inhibition of HDM induced PBMC proliferation at 100 nM dAb” value with human IL-4 [6] worked out at 23%.
